In patent US20090191187A1 (published 2009):
Numbering of substitutions follows the chain as printed.

T1: recombinant soluble human type 1 IL-1 receptor (extracellular domain, glycosylated) (human, UniProt P14778 21-333, N-glycosylated (from SF9 insect cells); biotinylated in the ELISA of Examples 2 and 4c)
T1 construct: also called hIL-1R; rshIL-1R
T1 sequence: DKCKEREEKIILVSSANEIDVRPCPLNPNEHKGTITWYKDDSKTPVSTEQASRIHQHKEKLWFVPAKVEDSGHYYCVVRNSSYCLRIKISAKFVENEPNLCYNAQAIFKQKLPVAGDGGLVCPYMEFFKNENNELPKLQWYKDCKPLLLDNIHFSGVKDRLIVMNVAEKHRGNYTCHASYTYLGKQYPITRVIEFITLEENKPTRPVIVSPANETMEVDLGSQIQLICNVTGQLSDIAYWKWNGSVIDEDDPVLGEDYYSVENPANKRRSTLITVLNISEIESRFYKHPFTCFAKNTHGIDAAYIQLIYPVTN

T2: human interleukin-1 receptor on cells (MRC-5 human embryonic lung fibroblasts; human blood cells) (human, UniProt P14778 18-569)
T2 sequence (looked up): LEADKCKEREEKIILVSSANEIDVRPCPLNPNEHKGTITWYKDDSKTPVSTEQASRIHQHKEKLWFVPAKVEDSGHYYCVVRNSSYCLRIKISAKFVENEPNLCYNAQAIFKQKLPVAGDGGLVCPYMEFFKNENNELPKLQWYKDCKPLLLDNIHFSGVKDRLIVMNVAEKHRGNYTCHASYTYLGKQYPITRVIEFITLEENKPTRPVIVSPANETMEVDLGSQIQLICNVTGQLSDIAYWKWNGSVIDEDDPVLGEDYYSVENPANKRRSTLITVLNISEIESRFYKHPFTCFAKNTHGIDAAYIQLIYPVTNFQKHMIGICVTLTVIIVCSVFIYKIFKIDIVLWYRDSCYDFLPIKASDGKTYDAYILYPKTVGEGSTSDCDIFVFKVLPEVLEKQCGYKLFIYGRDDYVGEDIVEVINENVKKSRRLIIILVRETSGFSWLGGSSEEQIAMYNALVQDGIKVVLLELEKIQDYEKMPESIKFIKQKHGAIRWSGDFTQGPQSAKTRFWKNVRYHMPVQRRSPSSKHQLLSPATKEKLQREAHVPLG

B1: DEI2/4 (antibody, V domains shown)
VH: QLQLQESGPGLVKPSQTLSLTCTVSGLSLTSNSITWVRQAPGQGLEWMGMIWSNGDTDYSTSLKSRLTISKDTSKSQVVLTMTNMDPVDTATYYCARYNYYFDYWGQGTLVTVSS
VL: DIVLTQSPATLSLSPGERATLSCKASQNVDNRGVSYVHWYQQKPGQAPKLLIYKGSNLAFGVPARFSGSGSGTDFTLTISSLQPEDFATYYCQQSKGHPDTFGAGTKLELK
notes: also called combination of HURDIVHv2 and HURDIVKv4
B2: DEI2/9 (antibody, V domains shown)
VH: B1 VH
VL: B1 VL with A64S
notes: also called combination of HURDIVHv2 and HURDIVKv9
B3: DEI2/8 (antibody, V domains shown)
VH: B1 VH
VL: B1 VL with A64S, Y91F
notes: also called combination of HURDIVHv2 and HURDIVKv8
B4: DEI5/4 (antibody, V domains shown)
VH: B1 VH with V37I, A40P, Q43K, L45P
VL: B1 VL
B5: DEI4/7 (antibody, V domains shown)
VH: QLQLQESGPGLVKPSQTLSLTCTVSGLSLTSNSITWIRQPPGKGPEWMGMIWSNGDTDYNSAFTSRFTISRDNSKNTLYLQMNSLKTEDTAVYYCARYNYYFDYWGQGTLVTVSS
VL: B1 VL with Y91F
B6: DEI5/7 (antibody, V domains shown)
VH: B1 VH with V37I, A40P, Q43K, L45P
VL: B1 VL with Y91F
B7: DEI4/9 (antibody, V domains shown)
VH: B5 VH
VL: B1 VL with A64S
B8: DEI5/9 (antibody, V domains shown)
VH: B1 VH with V37I, A40P, Q43K, L45P
VL: B1 VL with A64S

target: T1, recombinant soluble human type 1 IL-1 …; experiment: ELISA on biotinylated human IL-1R on streptavidin plates
Description: The relative immunactivity of the antibodies as compared to 2D8 antibody was determined by ELISA. A soluble biotinylated human IL-1R was coated at room temperature for one hour to 96-well-plates (precoated with streptavidin). After blocking with BSA the antibody was diluted and added to the wells and incubated at room temperature for two hours. The plates were washed three times and incubated with horse-radish-peroxidase (POD)-conjugated rabbit-anti-rat-IgG at room temperature for one hour. After further washing the amount of bound antibody was determined by addition of TM-Blue® ([…]) and measurement of the absorbance at 370 nm.

Binder	ELISA (absorbance at 370 nm in relation to 2D8), 1st experiment	ELISA (absorbance at 370 nm in relation to 2D8), 2nd experiment	ELISA (absorbance at 370 nm in relation to 2D8), mean
B1	1.5 relative to 2D8	1.8 relative to 2D8	1.7 relative to 2D8
B2	1.4 relative to 2D8	1.8 relative to 2D8	1.6 relative to 2D8
B3	1.5 relative to 2D8	2.6 relative to 2D8	2.1 relative to 2D8

target: T2, human interleukin-1 receptor on cells …; experiment: cell-based or functional assay

Binder	Bioassay (IC50 in relation to 2D8), 1st experiment	Bioassay (IC50 in relation to 2D8), 2nd experiment	Bioassay (IC50 in relation to 2D8), Mean
B4	3.1 relative to 2D8	1.9 relative to 2D8	2.5 relative to 2D8
B5	3.4 relative to 2D8	3.5 relative to 2D8	3.5 relative to 2D8
B6	3.4 relative to 2D8	1.2 relative to 2D8	2.3 relative to 2D8
B7	5.2 relative to 2D8	4.1 relative to 2D8	4.7 relative to 2D8
B1	2.5 relative to 2D8	2 relative to 2D8	2.3 relative to 2D8
B2	2.7 relative to 2D8	2.8 relative to 2D8	2.8 relative to 2D8
B8	1.6 relative to 2D8	2.8 relative to 2D8	2.2 relative to 2D8
B3	3.3 relative to 2D8	1.4 relative to 2D8	2.4 relative to 2D8
